Non-standard residues stand in square brackets, D forms with d. *: point of attachment. 4Pal = N[C@@H](Cc1ccncc1)C(=O)O; Cha = N[C@@H](CC1CCCCC1)C(=O)O; Cit = NC(=O)NCCC[C@H](N)C(=O)O; Isonicotinoyl = O=C(c1ccncc1)*; Iva = CC[C@](C)(N)C(=O)O; Nle = CCCC[C@H](N)C(=O)O; Aib = CC(C)(N)C(=O)O

First the molecules themselves.
B1: Ac-[D-Pro24, Iva25, Cha27,36, Aib28,31, Lys30]-PYY(23-36) (peptide)
peptide: Ac-S[dP][Iva]H[Cha][Aib]NK[Aib]TRQR[Cha]-NH2
SMILES: CC[C@](C)(NC(=O)[C@H]1CCCN1C(=O)[C@H](CO)NC(C)=O)C(=O)N[C@@H](Cc1c[nH]cn1)C(=O)N[C@@H](CC1CCCCC1)C(=O)NC(C)(C)C(=O)N[C@@H](CC(N)=O)C(=O)N[C@@H](CCCCN)C(=O)NC(C)(C)C(=O)N[C@H](C(=O)N[C@@H](CCCNC(=N)N)C(=O)N[C@@H](CCC(N)=O)C(=O)N[C@@H](CCCNC(=N)N)C(=O)N[C@@H](CC1CCCCC1)C(N)=O)[C@@H](C)O
B2: Ac-[Glu23, D-Pro24, Nle25, Pya(4)26, Cha27,36, Aib28,31, Lys30]-PYY(23-36) (peptide)
peptide: Ac-E[dP][Nle][4Pal][Cha][Aib]NK[Aib]TRQR[Cha]-NH2
SMILES: CCCC[C@H](NC(=O)[C@H]1CCCN1C(=O)[C@H](CCC(=O)O)NC(C)=O)C(=O)N[C@@H](Cc1ccncc1)C(=O)N[C@@H](CC1CCCCC1)C(=O)NC(C)(C)C(=O)N[C@@H](CC(N)=O)C(=O)N[C@@H](CCCCN)C(=O)NC(C)(C)C(=O)N[C@H](C(=O)N[C@@H](CCCNC(=N)N)C(=O)N[C@@H](CCC(N)=O)C(=O)N[C@@H](CCCNC(=N)N)C(=O)N[C@@H](CC1CCCCC1)C(N)=O)[C@@H](C)O
B3: 4-Pyridinecarbonyl-[Glu23, D-Pro24, Nle25, Pya(4)26, Cha27,36, Aib28,31, Lys30]-PYY(23-36) (peptide)
peptide: Isonicotinoyl-E[dP][Nle][4Pal][Cha][Aib]NK[Aib]TRQR[Cha]-NH2
SMILES: CCCC[C@H](NC(=O)[C@H]1CCCN1C(=O)[C@H](CCC(=O)O)NC(=O)c1ccncc1)C(=O)N[C@@H](Cc1ccncc1)C(=O)N[C@@H](CC1CCCCC1)C(=O)NC(C)(C)C(=O)N[C@@H](CC(N)=O)C(=O)N[C@@H](CCCCN)C(=O)NC(C)(C)C(=O)N[C@H](C(=O)N[C@@H](CCCNC(=N)N)C(=O)N[C@@H](CCC(N)=O)C(=O)N[C@@H](CCCNC(=N)N)C(=O)N[C@@H](CC1CCCCC1)C(N)=O)[C@@H](C)O
B4: Ac-[D-Pro24, Nle25, Pya(4)26, Cha27,36, Aib28,31, Lys30]-PYY(23-36) (peptide)
peptide: Ac-S[dP][Nle][4Pal][Cha][Aib]NK[Aib]TRQR[Cha]-NH2
SMILES: CCCC[C@H](NC(=O)[C@H]1CCCN1C(=O)[C@H](CO)NC(C)=O)C(=O)N[C@@H](Cc1ccncc1)C(=O)N[C@@H](CC1CCCCC1)C(=O)NC(C)(C)C(=O)N[C@@H](CC(N)=O)C(=O)N[C@@H](CCCCN)C(=O)NC(C)(C)C(=O)N[C@H](C(=O)N[C@@H](CCCNC(=N)N)C(=O)N[C@@H](CCC(N)=O)C(=O)N[C@@H](CCCNC(=N)N)C(=O)N[C@@H](CC1CCCCC1)C(N)=O)[C@@H](C)O
B5: Ac-[Aib24,28,31, Pya(4)26, Cha27,36, Lys30]-PYY(23-36) (peptide)
peptide: Ac-S[Aib]R[4Pal][Cha][Aib]NK[Aib]TRQR[Cha]-NH2
SMILES: CC(=O)N[C@@H](CO)C(=O)NC(C)(C)C(=O)N[C@@H](CCCNC(=N)N)C(=O)N[C@@H](Cc1ccncc1)C(=O)N[C@@H](CC1CCCCC1)C(=O)NC(C)(C)C(=O)N[C@@H](CC(N)=O)C(=O)N[C@@H](CCCCN)C(=O)NC(C)(C)C(=O)N[C@H](C(=O)N[C@@H](CCCNC(=N)N)C(=O)N[C@@H](CCC(N)=O)C(=O)N[C@@H](CCCNC(=N)N)C(=O)N[C@@H](CC1CCCCC1)C(N)=O)[C@@H](C)O
B6: Ac-[D-Pro24, Aib25,28,31, Pya(4)26, Cha27,36, Lys30]-PYY(23-36) (peptide)
peptide: Ac-S[dP][Aib][4Pal][Cha][Aib]NK[Aib]TRQR[Cha]-NH2
SMILES: CC(=O)N[C@@H](CO)C(=O)N1CCC[C@@H]1C(=O)NC(C)(C)C(=O)N[C@@H](Cc1ccncc1)C(=O)N[C@@H](CC1CCCCC1)C(=O)NC(C)(C)C(=O)N[C@@H](CC(N)=O)C(=O)N[C@@H](CCCCN)C(=O)NC(C)(C)C(=O)N[C@H](C(=O)N[C@@H](CCCNC(=N)N)C(=O)N[C@@H](CCC(N)=O)C(=O)N[C@@H](CCCNC(=N)N)C(=O)N[C@@H](CC1CCCCC1)C(N)=O)[C@@H](C)O
B7: Ac-[D-Pro24, Cit25, Cha27,36, Aib28,31, Lys30]-PYY(23-36) (peptide)
peptide: Ac-S[dP][Cit]H[Cha][Aib]NK[Aib]TRQR[Cha]-NH2
SMILES: CC(=O)N[C@@H](CO)C(=O)N1CCC[C@@H]1C(=O)N[C@@H](CCCNC(N)=O)C(=O)N[C@@H](Cc1c[nH]cn1)C(=O)N[C@@H](CC1CCCCC1)C(=O)NC(C)(C)C(=O)N[C@@H](CC(N)=O)C(=O)N[C@@H](CCCCN)C(=O)NC(C)(C)C(=O)N[C@H](C(=O)N[C@@H](CCCNC(=N)N)C(=O)N[C@@H](CCC(N)=O)C(=O)N[C@@H](CCCNC(=N)N)C(=O)N[C@@H](CC1CCCCC1)C(N)=O)[C@@H](C)O
B8: Ac-[D-Pro24, Iva25, Pya(4)26, Cha27,36, Aib28,31, Lys30]-PYY(23-36) (peptide)
peptide: Ac-S[dP][Iva][4Pal][Cha][Aib]NK[Aib]TRQR[Cha]-NH2
SMILES: CC[C@](C)(NC(=O)[C@H]1CCCN1C(=O)[C@H](CO)NC(C)=O)C(=O)N[C@@H](Cc1ccncc1)C(=O)N[C@@H](CC1CCCCC1)C(=O)NC(C)(C)C(=O)N[C@@H](CC(N)=O)C(=O)N[C@@H](CCCCN)C(=O)NC(C)(C)C(=O)N[C@H](C(=O)N[C@@H](CCCNC(=N)N)C(=O)N[C@@H](CCC(N)=O)C(=O)N[C@@H](CCCNC(=N)N)C(=O)N[C@@H](CC1CCCCC1)C(N)=O)[C@@H](C)O
B9: Ac-[D-Pro24, Aib25,28,31, Cha27,36, Lys30]-PYY(23-36) (peptide)
peptide: Ac-S[dP][Aib]H[Cha][Aib]NK[Aib]TRQR[Cha]-NH2
SMILES: CC(=O)N[C@@H](CO)C(=O)N1CCC[C@@H]1C(=O)NC(C)(C)C(=O)N[C@@H](Cc1c[nH]cn1)C(=O)N[C@@H](CC1CCCCC1)C(=O)NC(C)(C)C(=O)N[C@@H](CC(N)=O)C(=O)N[C@@H](CCCCN)C(=O)NC(C)(C)C(=O)N[C@H](C(=O)N[C@@H](CCCNC(=N)N)C(=O)N[C@@H](CCC(N)=O)C(=O)N[C@@H](CCCNC(=N)N)C(=O)N[C@@H](CC1CCCCC1)C(N)=O)[C@@H](C)O
B10: Ac-[Iva24, Pya(4)26, Cha27,36, Aib28,31, Lys30]-PYY(23-36) (peptide)
peptide: Ac-S[Iva]R[4Pal][Cha][Aib]NK[Aib]TRQR[Cha]-NH2
SMILES: CC[C@](C)(NC(=O)[C@H](CO)NC(C)=O)C(=O)N[C@@H](CCCNC(=N)N)C(=O)N[C@@H](Cc1ccncc1)C(=O)N[C@@H](CC1CCCCC1)C(=O)NC(C)(C)C(=O)N[C@@H](CC(N)=O)C(=O)N[C@@H](CCCCN)C(=O)NC(C)(C)C(=O)N[C@H](C(=O)N[C@@H](CCCNC(=N)N)C(=O)N[C@@H](CCC(N)=O)C(=O)N[C@@H](CCCNC(=N)N)C(=O)N[C@@H](CC1CCCCC1)C(N)=O)[C@@H](C)O

Chain of human Y2 receptor (human) (P49146 whole entry): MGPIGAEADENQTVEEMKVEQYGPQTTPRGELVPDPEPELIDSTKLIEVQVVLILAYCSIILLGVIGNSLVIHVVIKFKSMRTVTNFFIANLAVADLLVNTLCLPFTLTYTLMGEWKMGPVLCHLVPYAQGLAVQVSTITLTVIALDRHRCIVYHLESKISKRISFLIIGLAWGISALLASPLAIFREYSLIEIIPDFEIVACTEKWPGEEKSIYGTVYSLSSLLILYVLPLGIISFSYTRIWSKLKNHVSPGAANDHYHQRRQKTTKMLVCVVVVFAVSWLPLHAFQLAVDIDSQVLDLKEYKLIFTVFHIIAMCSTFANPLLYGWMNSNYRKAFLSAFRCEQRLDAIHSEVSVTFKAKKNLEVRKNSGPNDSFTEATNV

One test addresses human Y2 receptor (human) (UniProt P49146). The test can be described thus: RBA: displacement of [125I]-PYY from hY2R/CHO membranes. (In general: Displacement assays read how much labelled ligand stays bound in the presence of the test substance.)
Consider B1, for which the IC50 Ratio (IC50 compound/IC50 PYY(3-36)) turned out to be 8.8.
Same read-out and setting: next, B2: 7.5; B3: 8.1; B4: 3.
As to B5, the IC50 Ratio (IC50 compound/IC50 PYY(3-36)) came out at 0.81.
Still for that read-out and setting: next, B6: 8.4; B7: 6.2; B8: 2.9.
Still for that read-out and setting: next, B9: 24.
On the same count and under the same terms, the result for B10 reads 0.58.

A further test shares this target. As to the kind of experiment: cell-based or functional assay.
In the case of B1, the GBA EC50 Ratio ([35S]GTPγS binding) (EC50 compound/EC50 PYY(3-36)) came to 5.2.
Still for that read-out and setting: the result for B2 reads 6.9.
Still for that read-out and setting: the result for B3 reads 5.7; that for B4, 2.4; that for B5, 1.1.
Turning to B6, the GBA EC50 Ratio ([35S]GTPγS binding) (EC50 compound/EC50 PYY(3-36)) is 1.7.
Still for that read-out and setting: the result for B7 reads 4.6; that for B8, 2.9; that for B9, 11.
On to B10, for which the GBA EC50 Ratio ([35S]GTPγS binding) (EC50 compound/EC50 PYY(3-36)) was 0.91.
